{
  "source": "patent EP1443117B1",
  "about": "(UNIVERSITY OF VIRGINIA PATENT FOUNDATION, dated 2010)",
  "target": "T1, tssk 2 fused to the GAL4 DNA binding domain (DNA-BD) (human, UniProt P04386 1-147 (Saccharomyces cerevisiae entry), limits assumed)",
  "T1 construct": "Yeast two-hybrid bait expressed in reporter strain AH109; also called bait gene (tssk 2); fusion protein of TSSK2 with the DNA-BD",
  "assay": "yeast two-hybrid, growth in His-free medium (AH109 reporter strain)",
  "data": [
    {"binder": "GAL4 activation domain alone (GAL-AD plasmid) (other, UniProt P04386 768-881, looked up, also called GAL-AD alone) ANFNQSGNIADSSLSFTFTNSSNGPNLITTQTNSQALSQPIASSNVHDNFMNNEITASKIDDGNNSKPLSPGWTDQTAYNAFGITTGMFNTTTMDDVYNYLFDDEDTPPNPKKE", "values": [
      {"measurement": "binding result", "value": "no binding"}
    ]}
  ]
}
